Measurements reported in article PMC11198818, “Positive charges promote the recognition of proteins by the chaperone SlyD from Escherichia coli” (PLOS ONE, 2024).
cellulose membrane = Whatman 540 cellulose membrane solid support derivatized with two β-Ala residues; βAla = NCCC(=O)O

How the values were obtained:
[1] = target: C-terminally hexahistidine-tagged SlyD from Escherichia coli (E. coli) (UniProt P0A9K9); test: ITC; VP-ITC, 30°C, 10 mM potassium phosphate pH 7.6 or 7.8; His-tagged SlyD or variant 30 μM in the cell; HiPIP precursor injected, 200 μM (Fig 3) or 100 μM (Fig 4)
[2] = target: T1, SlyD D101A, C-terminally His-tagged (E. coli, UniProt P0A9K9 1-196, D101A); test: as above; conditions: both partners purified
T1 construct: SlyD, Escherichia coli; not shown: His6, C-terminal, kept
T1 sequence: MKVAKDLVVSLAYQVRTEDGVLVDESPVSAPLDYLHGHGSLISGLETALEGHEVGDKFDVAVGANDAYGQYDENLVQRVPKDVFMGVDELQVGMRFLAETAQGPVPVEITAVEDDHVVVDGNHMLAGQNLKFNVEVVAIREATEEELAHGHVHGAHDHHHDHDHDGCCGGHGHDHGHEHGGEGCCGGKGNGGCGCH

[3] = target: T2, C-terminally hexahistidine-tagged SlyD from Escherichia coli (E. coli, UniProt P0A9K9 1-196); test: as above; conditions: both partners purified
T2 construct: SlyD, chaperone and FKBP-family prolyl isomerase, Escherichia coli; also called His-tagged SlyD; wild type; not shown: His6, C-terminal, kept
T2 sequence: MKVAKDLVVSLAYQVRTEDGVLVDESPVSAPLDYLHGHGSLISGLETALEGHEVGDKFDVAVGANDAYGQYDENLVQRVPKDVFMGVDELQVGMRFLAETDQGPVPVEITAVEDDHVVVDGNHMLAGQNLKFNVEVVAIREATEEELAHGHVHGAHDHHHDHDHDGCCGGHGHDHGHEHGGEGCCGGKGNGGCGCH

[4] = target: T3, SlyD E108A, C-terminally His-tagged (E. coli, UniProt P0A9K9 1-196, E108A); test: as above; conditions: both partners purified
T3 construct: SlyD, Escherichia coli; not shown: His6, C-terminal, kept
T3 sequence: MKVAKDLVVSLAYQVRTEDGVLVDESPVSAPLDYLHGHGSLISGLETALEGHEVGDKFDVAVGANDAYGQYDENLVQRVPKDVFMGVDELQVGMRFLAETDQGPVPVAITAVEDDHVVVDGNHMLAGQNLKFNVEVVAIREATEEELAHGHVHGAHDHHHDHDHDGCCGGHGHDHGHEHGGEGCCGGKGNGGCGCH

[5] = target: single-exchange SlyD variants of the hydrophobic active site (F84A, F84N, F96A, F96G, F96N); test: as above
[6] = target: SlyD F84N, C-terminally His-tagged (E. coli, UniProt P0A9K9 1-196, F84N); test: ITC
[7] = target: SlyD F96G, C-terminally His-tagged (E. coli, UniProt P0A9K9 1-196, F96G); test: ITC
[8] = target: SlyD F96A, C-terminally His-tagged (E. coli, UniProt P0A9K9 1-196, F96A); test: ITC
[9] = target: SlyD F84N/F96N, C-terminally His-tagged (E. coli, UniProt P0A9K9 1-196, F84N | F96N); test: ITC
[10] = target: SlyD E89A, C-terminally His-tagged (E. coli, UniProt P0A9K9 1-196, E89A); test: ITC
[11] = target: SlyD F96N, C-terminally His-tagged (E. coli, UniProt P0A9K9 1-196, F96N); test: ITC
[12] = target: SlyD E113A, C-terminally His-tagged (E. coli, UniProt P0A9K9 1-196, E113A); test: ITC
[13] = target: T4, C-terminally hexahistidine-tagged SlyD from Escherichia coli (E. coli, UniProt P0A9K9 1-196); test: ITC
T4 chain: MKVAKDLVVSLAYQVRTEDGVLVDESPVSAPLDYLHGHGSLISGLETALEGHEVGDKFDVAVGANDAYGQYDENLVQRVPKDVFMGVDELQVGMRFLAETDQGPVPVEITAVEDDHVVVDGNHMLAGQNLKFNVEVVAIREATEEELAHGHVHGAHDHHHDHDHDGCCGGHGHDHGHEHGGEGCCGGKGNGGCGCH

[14] = target: T5, SlyD E89A, C-terminally hexahistidine-tagged (Escherichia coli, UniProt P0A9K9 1-196, E89A); test: ITC; VP-ITC, 30°C, 10 mM potassium phosphate buffer (pH 7.6 or 7.8); SlyD variant 30 μM in the cell, HiPIP precursor 100 μM injected (2x 22 injections of 10 μL); conditions: both partners purified
T5 construct: SlyD of Escherichia coli (FKBP-type prolyl isomerase and chaperone); not shown: His6, C-terminal, kept
T5 sequence: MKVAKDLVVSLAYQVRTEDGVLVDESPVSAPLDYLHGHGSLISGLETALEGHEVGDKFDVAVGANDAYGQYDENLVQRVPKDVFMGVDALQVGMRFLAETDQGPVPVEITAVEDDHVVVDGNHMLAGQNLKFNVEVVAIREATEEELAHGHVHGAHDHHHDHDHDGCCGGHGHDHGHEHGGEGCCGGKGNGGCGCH

[15] = target: T6, SlyD E73A, C-terminally hexahistidine-tagged (Escherichia coli, UniProt P0A9K9 1-196, E73A); test: as above; conditions: both partners purified
T6 construct: SlyD of Escherichia coli (FKBP-type prolyl isomerase and chaperone); not shown: His6, C-terminal, kept
T6 sequence: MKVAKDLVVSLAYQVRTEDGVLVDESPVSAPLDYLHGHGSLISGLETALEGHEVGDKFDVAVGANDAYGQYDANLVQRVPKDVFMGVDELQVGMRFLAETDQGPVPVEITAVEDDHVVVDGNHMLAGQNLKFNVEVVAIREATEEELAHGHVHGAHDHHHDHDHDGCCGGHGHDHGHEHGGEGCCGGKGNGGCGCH

[16] = target: T7, SlyD E113A, C-terminally hexahistidine-tagged (Escherichia coli, UniProt P0A9K9 1-196, E113A); test: as above; conditions: both partners purified
T7 construct: SlyD of Escherichia coli (FKBP-type prolyl isomerase and chaperone); not shown: His6, C-terminal, kept
T7 sequence: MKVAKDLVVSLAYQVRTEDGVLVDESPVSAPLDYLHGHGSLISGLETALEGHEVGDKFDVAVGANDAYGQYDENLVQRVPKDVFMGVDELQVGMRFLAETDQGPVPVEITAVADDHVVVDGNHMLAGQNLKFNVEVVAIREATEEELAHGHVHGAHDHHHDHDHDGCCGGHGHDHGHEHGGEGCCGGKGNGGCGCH

[17] = target: T8, SlyD D115A, C-terminally hexahistidine-tagged (Escherichia coli, UniProt P0A9K9 1-196, D115A); test: as above; conditions: both partners purified
T8 construct: SlyD of Escherichia coli (FKBP-type prolyl isomerase and chaperone); not shown: His6, C-terminal, kept
T8 sequence: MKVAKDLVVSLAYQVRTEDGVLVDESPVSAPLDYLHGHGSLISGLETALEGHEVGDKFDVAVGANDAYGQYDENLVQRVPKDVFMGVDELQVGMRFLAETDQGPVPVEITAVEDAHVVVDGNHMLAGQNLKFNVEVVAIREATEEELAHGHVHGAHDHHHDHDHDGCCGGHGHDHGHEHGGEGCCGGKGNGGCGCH

[18] = target: T9, SlyD Y68S, C-terminally hexahistidine-tagged (Escherichia coli, UniProt P0A9K9 1-196, Y68S); test: as above; conditions: both partners purified
T9 construct: SlyD of Escherichia coli (FKBP-type prolyl isomerase and chaperone); not shown: His6, C-terminal, kept
T9 sequence: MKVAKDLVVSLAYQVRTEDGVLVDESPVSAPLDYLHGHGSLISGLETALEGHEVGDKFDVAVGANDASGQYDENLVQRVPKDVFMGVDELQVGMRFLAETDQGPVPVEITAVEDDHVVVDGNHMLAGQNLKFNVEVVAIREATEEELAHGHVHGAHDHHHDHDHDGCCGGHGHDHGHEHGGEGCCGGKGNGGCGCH

[19] = target: T10, SlyD from Escherichia coli, C-terminally tagged with a Strep-tag II (E. coli, UniProt P0A9K9 1-196, 35S-methionine label (peptide arrays)); test: peptide or protein array; 13-mer peptides synthesised in spots on cellulose membrane; 35S-methionine-labelled Strep-tagged SlyD incubated 2 h at room temperature, washed in TBS (31 mM Tris-HCl pH 7.6, 170 mM NaCl, 6.4 mM KCl), phosphorimaging; conditions: both partners purified
T10 construct: SlyD, chaperone and FKBP-family prolyl isomerase, Escherichia coli; also called Strep-tagged SlyD; 35S-labeled SlyD; source: E. coli BW25113 ΔdnaK (pBW-slyD-strep), soluble, purified (StrepTactin) for the peptide arrays; not shown: Strep-tag II, C-terminal, kept
T10 sequence: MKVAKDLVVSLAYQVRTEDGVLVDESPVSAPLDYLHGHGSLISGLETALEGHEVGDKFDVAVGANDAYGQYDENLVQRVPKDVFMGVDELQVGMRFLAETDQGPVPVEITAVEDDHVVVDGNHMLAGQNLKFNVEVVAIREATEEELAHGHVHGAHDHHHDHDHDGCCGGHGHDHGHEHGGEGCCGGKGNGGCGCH

HiPIP precursor with an RR>KK exchange (from UniProt P00260 38-122) (natural protein)
Kd [1]: 1180 nM | dH [1]: -7700 cal/mol

B1: wild type HiPIP precursor from Allochromatium vinosum (natural protein, UniProt P00260 1-122, looked up)
chain: MSDKPISKSRRDAVKVMLGTAAAIPMINLVGFGTARASAPANAVAADDATAIALKYNQDATKSERVAAARPGLPPEEQHCANCQFMQADAAGATDEWKGCQLFPGKLINVNGWCASWTLKAG
notes: HiPIP (high-potential iron-sulfur protein), Allochromatium vinosum; the precursor with its Tat signal peptide; Called a fully folded Tat substrate; also called RR-HiPIP; signal-peptide-containing HiPIP precursor
Kd [2]: 950 nM | Kd [3]: ~0.35 µM | dH [3]: ~-9060 cal/mol | Kd [4]: 1820 nM | Kd [5]: 4 to 10 µM | Kd [6]: 6.6 µM | Kd [7]: 5.7 µM | Kd [8]: 4.9 µM | Kd [9]: > 360 µM | Kd [10]: 400 nM | Kd [11]: 8.9 µM | Kd [12]: 500 nM | Kd [13]: 400 nM

B2: HiPIP precursor (RR-HiPIP) from Allochromatium vinosum (natural protein)
chain: MSDKPISKSRRDAVKVMLGTAAAIPMINLVGFGTARASAPANAVAADDATAIALKYNQDATKSERVAAARPGLPPEEQHCANCQFMQADAAGATDEWKGCQLFPGKLINVNGWCASWTLKAG
modifications: HiPIP precursor; fully folded, [4Fe-4S] cluster presumed; signal peptide retained
Kd [14]: 380 nM | Kd [15]: 321 nM | Kd [16]: 493 nM | Kd [17]: 272 nM | Kd [18]: 299 nM

B3: HiPIP precursor with an RR>QQ exchange (natural protein)
chain: MSDKPISKSQQDAVKVMLGTAAAIPMINLVGFGTARASAPANAVAADDATAIALKYNQDATKSERVAAARPGLPPEEQHCANCQFMQADAAGATDEWKGCQLFPGKLINVNGWCASWTLKAG
modifications: HiPIP precursor; [4Fe-4S] cluster presumed; RR>QQ positions derived from primer hip-QQ-F, which encodes DKPISKSQQDAVKVML
Kd [3]: 38.7 ± 2 µM

B4: twin-arginine peptide in an oligoglycine environment (GGGGGXXGGGGGG, X = R) (peptide)
peptide: Ac-GGGGGRRGGGGGG-{βAla-βAla-cellulose membrane}
notes: the printed pattern GGGGGXXGGGGGG with X = R; The acetyl group and the spacer are told in the methods for the spot synthesis in general; also called arginines in a glycine environment; source: synthetic peptide, spot synthesis on cellulose membrane
binding result [19]: binds

B5: twin-lysine peptide in an oligoglycine environment (GGGGGXXGGGGGG, X = K) (peptide)
peptide: Ac-GGGGGKKGGGGGG-{βAla-βAla-cellulose membrane}
notes: the printed pattern GGGGGXXGGGGGG with X = K; The acetyl group and the spacer are told in the methods for the spot synthesis in general; also called lysines in a glycine environment; source: synthetic peptide, spot synthesis on cellulose membrane
binding result [19]: binds
